According to IntAct's records for PubMed 11932251:

B1: Regulator of chromosome condensation (Homo sapiens), P18754 (parent)
chain: MSPKRIAKRRSPPADAIPKSKKVKVSHRSHSTEPGLVLTLGQGDVGQLGLGENVMERKKPALVSIPEDVVQAEAGGMHTVCLSKSGQVYSFGCNDEGALGRDTSVEGSEMVPGKVELQEKVVQVSAGDSHTAALTDDGRVFLWGSFRDNNGVIGLLEPMKKSMVPVQVQLDVPVVKVASGNDHLVMLTADGDLYTLGCGEQGQLGRVPELFANRGGRQGLERLLVPKCVMLKSRGSRGHVRFQDAFCGAYFTFAISHEGHVYGFGLSNYHQLGTPGTESCFIPQNLTSFKNSTKSWVGFSGGQHHTVCMDSEGKAYSLGRAEYGRLGLGEGAEEKSIPTLISRLPAVSSVACGASVGYAVTKDGRVFAWGMGTNYQLGTGQDEDAWSPVEMMGKQLENRVVLSVSSGGQHTVLLVKDKEQS
partner: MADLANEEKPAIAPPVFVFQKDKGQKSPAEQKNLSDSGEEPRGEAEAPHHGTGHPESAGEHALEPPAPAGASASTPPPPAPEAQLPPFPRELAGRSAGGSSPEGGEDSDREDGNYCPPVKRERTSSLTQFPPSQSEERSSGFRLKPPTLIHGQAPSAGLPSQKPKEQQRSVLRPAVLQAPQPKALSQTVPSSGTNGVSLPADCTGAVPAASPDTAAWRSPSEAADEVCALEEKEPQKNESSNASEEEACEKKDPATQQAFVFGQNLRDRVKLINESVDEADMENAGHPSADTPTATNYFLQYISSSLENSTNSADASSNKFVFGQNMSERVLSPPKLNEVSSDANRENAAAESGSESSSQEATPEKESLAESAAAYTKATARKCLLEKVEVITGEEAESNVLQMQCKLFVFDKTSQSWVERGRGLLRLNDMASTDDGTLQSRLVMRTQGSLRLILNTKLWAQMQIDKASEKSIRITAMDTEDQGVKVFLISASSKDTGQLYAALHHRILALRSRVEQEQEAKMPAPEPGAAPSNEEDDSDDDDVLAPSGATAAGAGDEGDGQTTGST

Variants of: B1
Conditions: with ranb3_human RANBP3, Q9H6Z4

Variant	effect of a mutation on the interaction
D182A	disrupting interaction
